Test results reported in the nanobody polyreactivity screen of Harvey et al. (2022).

Assay: yeast display, Sf9 membrane polyspecificity reagent, FACS + sequencing; frameworks hold sequencing errors
How it was run: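 Synthetic nanobody libraries on Saccharomyces cerevisiae BJ5465 were galactose-induced for 36–48 hours, stained 1 hour at 4 °C with 10% biotinylated, detergent-solubilized Sf9 membrane reagent and enriched on streptavidin microbeads. FACS then separated cells into low and high (top ~1%) gates by anti-HA (expression) and streptavidin (reagent binding) fluorescence. Genes were colony-PCR amplified, MiSeq 2 × 250 sequenced and CDR-length filtered. A clone's polyreactivity label is that of its gate of origin.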

Row | Sequence | polyreactivity (PSR sort gate)
1 | QVQLVESGGGLVQAGGSLRLSCAASGRTLLLNTMGWYRQAPGKERELVAAISWRDGSTYYADSVKGRFTFSRDKAKNTVYLLMNSLKPEDTAVYYCNARLSGRSQYDVRFDYWGQGTQVTVSS | low polyreactivity
2 | QVQLVESGGGLVQAGGSLRLSCDASGRIFDYYAMGWYRQAPGKEMELVAAISTSGGSTYYADSVKGRFTISRDNAKNTVYLQMTRLKPEDTAVYYWAKDITDTYPGLDYDYWGQGTQVTVSS | low polyreactivity
3 | QVQLVESGGGLVQAGGSLRLSCAASGSTFAKYAMGWYRQAPGKERELVASIRLSGGSTYYADSVKGRFTISRDNAKNPDYLQMNSLNPEDTAVYYFNKQFATFYYGFDYYYWGQGSQVTVSS | low polyreactivity
4 | QVQLVESGGGLVQAGGSLRLSCAASGSIFKYYAMGWYRQAPGKERELVAAITTTGGITYYADSVNGRFTISRDNAKNTDYLQMISLKPEDTAVYYCNAYYPIRSSPYGYYYCGQGTQVTVSS | high polyreactivity
5 | QVQHVESGGGLVQAGGSLRLSCAASGRIFYLNAMGWYRQAPGKERELVAAISRVGRTNYADSVKGRFTISRDNAKNTVYLQMNSLKPEDTAVYYCAAVYYSVNGRHGYWGQGTQVTVSS | high polyreactivity
6 | QVQLVESGGGLVQAGGSLRLSCAASGSTIRKNALGWSRQAPGKEREWVADIRRGGGTNYADSVKGRFTISRDNAKNTVYLQMNSLKPEDTAVYSCNTDILYYGRSKAPFYYCGQGTQVTVSS | high polyreactivity
7 | QVQLVESGGGLVQAGGSLRLSCAASGFTFFRYAMGWYRQAPGKERDLVAAITSGGGRTYYADSVKGRFTISRYNAKNTVYLQMNRLKPEDTAVYYCNAVRRVDMYYWGLGTQVTVSS | high polyreactivity
8 | QVQLVESGGGLVQAGGSLRLSCAACGSTFGYNAMGWYRQAPGKERELVADISWSGGTTYYADSVKGRFTISRDNAKNTVYLQMNSLKPEDTAVYYCNARYPDRPVQGWRVEVDYWGQGTQVTVSS | high polyreactivity
9 | QVQLVESGGGLVQAGGSLRLSCAASGSIFYYNAMGWYSQAPGKERELVAAITGSGGSTYYADSVKGRFTISRDNAKNTVYLQMNSLKPEDTAVYYCAADYSLYGWWFRNDYWGQGTQVTVSS | low polyreactivity
10 | QVQLVESGGGLVQAGGSLRLSCAASGRISNDYAMGWYRQAPGKERELVATITFSGGDTYYADSVKGRFTISRDNAKNTVYLQMNSLKPEDTAVYYCAASKWRSFSGGWWRLLFDYWGQGTQVTVSS | low polyreactivity
11 | QVQLVESGGGLVQAGGSLRLSCAASGSIFGEYAMGWYRQAPGKERELVAGITSDGSTNYADSVKGRFTISRDNAKNTVYLQMNSLKQEDTAVYYCAAAGYVYHWAPRGSRYYYWGQGTQVTVSS | low polyreactivity
12 | QVQLVESGGGLVQAGGSLRLSCAASGSTVYVYTMGGYRQAPGKERELVAANSLSGDNTYYADSVKGRFTISRDNAKNTVYLQKNSLKPEATAVYYCNADIIGFPADYLYDYWGQGTQVTVSS | low polyreactivity
13 | QDQLVESGGGLVQAGGSLRLSCAASGITFSSNAMGGYRQAPGKERELVAAISRNGDRTYYADSVKGRFTISRDNAKNTVYLQMNSLKPEVTAVYYCATAYPGSRRDYWGQGTQVTVSS | high polyreactivity
14 | HVQLQESGGGLVQAGGSLRLSCAASGNISYSRNMGWYRQAPGKERELVAAIDRGAITYYADSVKGRFTISRDNAKNTVYLQIYSLKPEDTAVYYCAAEDHDRWDHLYWGQGTQVTVSS | high polyreactivity
15 | HVQLVESGGGFVQAGGSLRLSCASYGSIFSGYAMGSYRQAPAKERELVAAISNTGSTNYADSVKGRFTISRDNAKYNVYLQMNSLKPEDTAVYYCNASYSYGEMDYWGQGTQVTVSS | low polyreactivity
16 | QVQLVESGGGLVQAGGSLRLSCAASGRIFTAYTMGWYRQAPGKERELVAAISTSGTSTYYADSVKGRFTISRDNAKNTVYLQMNSLKPEDTAVYYCATDYYYYPHSQYDYWGQGTQVTVSS | low polyreactivity
17 | QVQLVESGGGLVQAGGSLPLSCAASGSIFGGNDMGWYRQAPGKERELVAAITSSGGSTYYADSVKGRFTITRDNAKITVYCQMNRLKPEVTAVYYCNADYYGPYRDYGYWGQGTQVTVSS | low polyreactivity
18 | QVQLVESGGGLVQAGGSLRISCPASGTFYYYGMGWSRQAPGKERELVAAISWSGTSTFYADSVKGRFTISRDNAKNTVYIQMKSLKPEDTAVYYCHKPKFDSSGHDYWGQGTQETVSS | low polyreactivity
19 | QVQLVESGGGLLQAGGSLRLSCAASGRILFSYAMGWYRQAPGKERELVATISSGGRTNYADSVKGRFTISRDNAKNTVYLQMNSLKPEDTAVYYCNTEYLVWYAYDYGGQGTQVTVSS | low polyreactivity
20 | QVQLVESGGGLVQAGGSLRLSCAASGRTYGIYAMGWYRQAPGKERELVADITIGGSTYYADSVMGRFTISRDNAKNTVYLQMNSLKPEDTAVYYCNADFVVQYYFTYYRVFTYDYWGLGTQVTVSS | low polyreactivity
21 | QVQLVESGGGLVQAGGSLRISCAASGIIFDTNAMGWYRQAPGKERELVATITQRGGTTYYADSVKGRFTISRDNAKNTVYLQMNSLKPEDTAVYYCAKDYWFGYEYWGQGTQVTVSS | low polyreactivity
22 | QVQLVESAGGLVQAGGSLRLSCAASGSTFGKYAMGWDRHAPGKERELVAAISWSGGSTYYADSVKGRFTISRDNAKNTVYLQMNSLKPEDTAVYYCTVYRYDGDYWGQGTQVTVSS | high polyreactivity

Row | Sequence | polyreactivity (PSR sort gate)
23 | QVQLVESGGGLVQAGGSLRLSCAASGIIFSSYGMGWYRQAPGKERELVAAIRWSTGNTYYADSVKGRFTISRDNAKNTVYLQMNSLKPEDTAVYYCAKRSSWGYHFYYWGQGTQVTVSS | high polyreactivity
24 | QVQLVESGGGLVQAGGSLRLSCAASGSIFEVNAMGWYRQAPGKERELVAAISCSGGSTYYADSVKGRFTISRDNAKNTVYLQMNSLKPEDTAVYYCAADWRQGLWYGYYYWGQGTQVTVSS | low polyreactivity
25 | QVQLVESAGGLVQAGGSLRLSCAASGRIFGQYTMGWYRQAPGKERELDAAISSSGGRTYYADSVKGRFTISRDNAKNTVYLQMNSLKPEDTAVYYCAARDRPSPYYYWGQGTQVTVSS | high polyreactivity
26 | QVQLVESGGGLVQAGGILRLSCAASGSTMGYYPMGWYRQEPGKERELVAAIRYSDGNTYYADSVKGRFTISRDTAKNTVYLQMNSLKPEDTAVYYCAADGGYYGRDYWGQGTQVTVSS | high polyreactivity
27 | QVQLVESGGGLVQAGGSLRLSCAASGFTFHNNVMGWYRQAPGKERELVATISKSGGSTYYADSVKGRFTISRDNAKNTVYLQMNSLKPEDTAVYYCAALYPYQYVRGGYWGQGTQVTVSS | high polyreactivity
28 | QVQLVESGGGLVQAGGSLRLSCAASGRTFVYNAMGWYRQAPGKERELVAAIRFSGGRTYYADSVKGRFTISRDNAKNTVYLQMNSLKPEDTAVYYCAVTGELTLYTWRSFEYYYWGQGTQVTVSS | low polyreactivity
29 | QVQLVETGGGLVQAGGSRRLICAATGRIFYWYAMGCYRQAPGKERELVATISSAGTTYYADSVKGRFTISRDNAKNTVYLQMNSLKQEDTAVYYCAVPRVGLHGIGSDYWGQGTQVTVSS | high polyreactivity
30 | QVQLVESGGGLVQAGGSLRLSCAASGFIFGHNAMGWYRQAPGKQRELVAAITYSGGSTYYADSVKGRFTISRDNAKNTVYLQMNSLKPEDTAVSYSAASNQWSSTYLTYGYYYWGQGTQVTVSS | low polyreactivity
31 | QVQLVESGGGLVQAGGSLRLSCAASGLIIPRYAMGWYRQAPGKERELVAAITYTGGSTYYADSVKGRFTISRDNAKNTVYLQMNSLKPEDTSVYYCAVVVGYTDSPYSYDYWGQGTQVTVSS | low polyreactivity
32 | QVQLVESGGGLVQAGGSLRLSCAASGSTFSSYAMGWYRQAPGKERELVAAITSSGGSTYYADSVKGRFTISRDNAKNTVYLQMNSLKPEDTAVYYCAAADVIFWLYYYWGQGTQVTVSS | low polyreactivity
33 | QVQLVESGGGLVQAGGSLRLSCAATGFIFSYYAMGWYRQAPGKERELVATITSGGSTYYADSVKGRFTISRDNAKNTVYLQMNSLKPEDTAVYYCNADWYWRVYWGQGTQVTVSS | high polyreactivity
34 | QVQLVESGGGLVQAGGSLRLSCAASGIIFIGNAMGWYRQAPGKERELVAAITYTGGSTYYADSVKGRFTISRDNAKNTVYLQMNSLKPEDTAVYYCAVDRTHLEDDYWGQGTQVTVSS | low polyreactivity
35 | QVQLVESGGGLVQAGGSLRLSCAASGRIFNYYAMGWYRQAPGKARELVAAISGSGGRTYYADSVKGRFTISRDNAKNTVYLQMNSLKPEDTAVYYCAADGVDGYDYWGQGTQVTVSS | high polyreactivity
36 | QVQLVESGGGLVQAGGSLRLSCAASGSTFGNNTMGWNRQSPGKEREFVAAITESGGGTYADSVKGRFTISRDNAKNTVYLQLNSLKPEDTAVYYCAAVWYIWPFAFYDWAQGTQVTVSS | high polyreactivity
37 | QVQLVESGGGLVQAGGSLRLSSAASGTTFAPNAMGWYRPAPGKERELVAAISSGGDSTNYADSVKGRFTISRDNAKNTVYLQLNSLKPEDTAVYYCAAHYVEREYDYWGQGTQVTVSS | low polyreactivity
38 | QVQLVESGGGLVQAGGSLRLSCAASGSTFTYYAMGWYRQAPGKERELVAAISRSGGNTYYADSVKGRFTISRDNAKNTVYLQMNSLKPEDTAVYYCAAYRQVYGFDYWGQGTQVTVSS | high polyreactivity
39 | QVQLVESGGGLVQAGGSLRLRCAASGRIFGRYAMGWYRQAPGKERELVASISRGGSTNYADSVKGRFTISLDNAKNTVYLQMNSLKPEDTAVFYFAKSGGVGGDDRVGSWGQGTQVTVSS | low polyreactivity
40 | QVQLEESCGGLVQAGGSLRLSCAASGRTFRYYPMGWYRQAPGKERELVAAITTGSSTYYADSVKGRFTISRDNANNTVYLQMNSLKPEDTAVFYCNVFQGTRYGYWGQGTQVTVSS | low polyreactivity
41 | QVQLVESGGGLVQAGGSLRLTCAASGRTFARNAMGWYRQAPGKERELVAAITRSGGSTYYADSVKGRFTISRDNAKNTVYLQMNSLKPEDTAVYYCAADVRTYRGYYWKAFDYWGQGTQVTVSS | high polyreactivity
42 | QVQLVESGGGLVQAGGSLRLSCAASGITFQYYAMGWYRQAPGKERELVAAISGGGSTNYADSVKGRFTISRDNAKNTVYLQMNSLKPEDTAVYYCAAADLNLELDYWGQGTQVTVSS | high polyreactivity
43 | QVQLVESGRGLVQAGGSLRLSCAASGRIFNLNAMGWYRQAPGKERELVAAITRGGRTIYADSVKGRFTISRDNAQNTVYLQMNSLKPEDTAVYYCAAAYYGSHGRYDYWGQGTQVTVSS | high polyreactivity
